B1: CER104: Tim4 binding and transmembrane domains, TLR8 primary and DAP12 secondary signaling domains; SEQ ID NO:133 (protein)
chain: MSKGLLLLWLVTELWWLYLTPAASEDTIIGFLGQPVTLPCHYLSWSQSRNSMCWGKGSCPNSKCNAELLRTDGTRIISRKSTKYTLLGKVQFGEVSLTISNTNRGDSGVYCCRIEVPGWFNDVKKNVRLELRRATTTKKPTTTTRPTTTPYVTTTTPELLPTTVMTTSVLPTTTPPQTLATTAFSTAVTTCPSTTPGSFSQETTKGSAFTTESETLPASNHSQRSMMTISTDIAVLRPTGSNPGILPSTSQLTTQKTTLTTSESLQKTTKSHQINSRQTILIIACCVGFVLMVLLFLAFLHHLFYWDVWFIYNVCLAKVKGYRSLSTSQTFYDAYISYDTKDASVTDWVINELRYHLEESRDKNVLLCLEERDWDPGLAIIDNLMQSINQSKKTVFVLTKKYAKSWNFKTAFYLALQRLMDENMDVIIFILLEPVLQHSQYLRLRQRICKSSILQWPDNPKAEGLFWQTLRNVVLTENDSRYNNMYVDSIKQYYFLGRLVPRGRGAAEAATRKQRITETESPYQELQGQRSDVYSDLNTQRPYYK
modifications: CER104 protein
B2: CER123: Tim4 binding and transmembrane domains, TLR2 primary and TRAF6 secondary signaling domains; SEQ ID NO:150 (protein)
chain: MSKGLLLLWLVTELWWLYLTPAASEDTIIGFLGQPVTLPCHYLSWSQSRNSMCWGKGSCPNSKCNAELLRTDGTRIISRKSTKYTLLGKVQFGEVSLTISNTNRGDSGVYCCRIEVPGWFNDVKKNVRLELRRATTTKKPTTTTRPTTTPYVTTTTPELLPTTVMTTSVLPTTTPPQTLATTAFSTAVTTCPSTTPGSFSQETTKGSAFTTESETLPASNHSQRSMMTISTDIAVLRPTGSNPGILPSTSQLTTQKTTLTTSESLQKTTKSHQINSRQTILIIACCVGFVLMVLLFLAFLHRFHGLWYMKMMWAWLQAKRKPRKAPSRNICYDAFVSYSERDAYWVENLMVQELENFNPPFKLCLHKRDFIPGKWIIDNIIDSIEKSHKTVFVLSENFVKSEWCKYELDFSHFRLFDENNDAAILILLEPIEKKAIPQRFCKLRKIMNTKTYLEWPMDEAQREGFWVNLRAAIKSMSLLNCENSCGSSQSESDCCVAMASSCSAVTKDDSVGGTASTGNLSSSFMEEIQGYDVEFDPPLESKYECPICLMALREAVQTPCGHRFCKACIIKSIRDAGHKCPVDNEILLENQLFPDNFAKREILSLMVKCPNEGCLHKMELRHLEDHQAHCEFALMDCPQCQRPFQKFHINIHILKDCPRRQVSCDNCAASMAFEDKEIHDQNCPLANVICEYCNTILIREQMPNHYDLDCPTAPIPCTFSTFGCHEKMQRNHLARHLQENTQSHMRMLA
modifications: CER123 protein
B3: CER122: Tim4 binding and transmembrane domains, TLR2 primary and DAP12 secondary signaling domains; SEQ ID NO:149 (protein)
chain: MSKGLLLLWLVTELWWLYLTPAASEDTIIGFLGQPVTLPCHYLSWSQSRNSMCWGKGSCPNSKCNAELLRTDGTRIISRKSTKYTLLGKVQFGEVSLTISNTNRGDSGVYCCRIEVPGWFNDVKKNVRLELRRATTTKKPTTTTRPTTTPYVTTTTPELLPTTVMTTSVLPTTTPPQTLATTAFSTAVTTCPSTTPGSFSQETTKGSAFTTESETLPASNHSQRSMMTISTDIAVLRPTGSNPGILPSTSQLTTQKTTLTTSESLQKTTKSHQINSRQTILIIACCVGFVLMVLLFLAFLHRFHGLWYMKMMWAWLQAKRKPRKAPSRNICYDAFVSYSERDAYWVENLMVQELENFNPPFKLCLHKRDFIPGKWIIDNIIDSIEKSHKTVFVLSENFVKSEWCKYELDFSHFRLFDENNDAAILILLEPIEKKAIPQRFCKLRKIMNTKTYLEWPMDEAQREGFWVNLRAAIKSYFLGRLVPRGRGAAEAATRKQRITETESPYQELQGQRSDVYSDLNTQRPYYK
modifications: CER122 protein

Legend:
Assay type in all cases: cell-based
A549 ALK+ cells = test: MTT viability and bright field microscopy of A549 ALK+ cells with CER T cells and ALK inhibitor; conditions: for in vitro growth/viability of A549 ALK+ cells (MTT): Alectinib or Crizotinib 250 nM-10 μM, E:T 2:1 and 5:1
Text: An […] translocation was introduced into A549 cells. […] CER104 has a polypeptide sequence set forth in SEQ ID NO:133 and comprises a Tim4 binding domain, Tim4 transmembrane domain, and an engulfment signaling domain comprising a primary engulfment signaling domain comprising a TLR8 signaling domain and a secondary engulfment signaling domain comprising a DAP12 signaling domain. CER122 has a polypeptide sequence set forth in SEQ ID NO:149 and comprises a Tim4 binding domain, Tim4 transmembrane domain, and an engulfment signaling domain comprising a primary engulfment signaling domain comprising a TLR2 signaling domain and a secondary engulfment signaling domain comprising a DAP12 signaling domain. Effector:target (E:T) cell ratio for co-culture was 2:1 or 5:1. […] Cell viability experiments were performed in triplicates and presented as % of control. Best-fit curves were generated from raw data using linear regression models.
CER21−, CER108−, CER104−, and CER129-transduced CD4+ T cells were tested for their ability to kill A549 ALK+ cells in the presence of ALK inhibitor. CD4+ T cells were transduced with a lentiviral vector comprising a CER21, CER108, CER104, CER129, CER27, CER120, CER122, CER123, CER124, or CER126 nucleic acid. […] After 48 hours of co-culture, T cells were washed away and the number of viable A549 ALK+ cells was quantified using a calorimetric MTT assay (FIGS. 67A-B). Cell viability experiments were performed in triplicates and presented as % of control. Bright field microscopy images were also obtained from A549 ALK+co-culture experiments. […] Arrow indicates cluster of dead A549 ALK+ cells surrounded by phagocytic CER104+ T cells. […]

ALK+A549 cells = test: Phagocytosis of ALK inhibitor treated A549 ALK+ cells by CER T cells (fluorescent microscopy); conditions: for phagocytosis of A549 cells: CD4 T cells
Text: An ELM4-ALK translocation was introduced into A549 cells. […] CD4 T cells are modified to express CER104 or CER117 and labeled with CELLTRACE Violet. CER117 has a polypeptide sequence set forth in SEQ ID NO:144 and comprises a Tim4 binding domain, a Tim4 transmembrane domain, and an engulfment signaling domain comprising a primary engulfment signaling domain comprising a TLR8 signaling domain and a secondary engulfment signaling domain comprising a TRAF6 signaling domain. The ALK+A549 cells were then co-cultured with CER104- or CER117-expressing CD4+ T cells or Mock-transduced (vector only) T cells for 12 hours and images were obtained by fluorescent microscopy at 40× magnification (FIGS. 62A-E). White arrows indicate exemplary phagocytic events (pH rodo red cell targets within CELLTRACE Violet labeled CD4+ T cells).
CER123- and CER126-transduced CD4+ and CD8+ T cells were labeled with CELLTRACE Violet and co-cultured with the A549 ALK-positive cells. Co-cultured cells were imaged by fluorescent microscopy at 63× magnification after 12 hours (FIGS. 63A-F). White arrows indicate exemplary phagocytic events (pHrodo red targets within CELLTRACE Violet-labeled CD4 T cells).
Phagocytosis of Alectinib-treated ALK+A549 cells by CER-expressing T cells was also quantified. […] Bar graph in FIG. 64A represents quantification of percentage phagocytosis calculated as ((number of phagocytic target events)/(total number of effector cells))*100. Events were calculated from fluorescent 3×3 stitched images at 40×resolution after 12 hours of co-culture. Bar graph in FIG. 64B represents quantification of adjusted phagocytic index calculated as (median area ratio of target events in effector cells*phagocytosis). Events calculated from fluorescent 3×3 stitched images at 40×resolution after 12 hours of co-culture.
CER21−, CER27−, CER30−, CER108−, CER110−, CER112−, CER120−, CER123−, CER124−, CER126−, CER127−, or CER104-transduced CD4+ T cells were co-cultured with Alectinib-treated A549 cells at a 1:1 ratio for 12 hours. Phagocytic events were calculated from 3×3 stitched fluorescent microscopy images at 40X resolution. […] Images were obtained after 12 hours of co-culture. Yellow triangles indicate exemplary phagocytic events (pHrodo red targets within CELLTRACE violet labeled CD4+ T cells).
A time course study of phagocytic uptake of tumor cells by CER-transduced T cells was performed. CD4+ T cells were transduced with a lentiviral vector comprising CER122 nucleic acid. Mock-transduced (vector only) CD4+ T cells were used as control. CER122-transduced T cells were labeled with CELLTRACE violet and co-cultured with pHrodo red labeled A549 ALK+ lung adenocarcinoma cells. Fluorescent microscopy images were obtained at 4, 8, and 16 hours co-culture (FIG. 72C), and % phagocytosis (FIG. 72A) and phagocytic index (FIG. 72B) were calculated.

[1] = tested on: A549 cells introduced with an ELM4-ALK translocation; test: Interferon Gamma secretion, A549 ALK+ co-culture; conditions: Crizotinib (3700 nM) or Alectinib (3700 nM), 18 hours, E:T 2:1 and 5:1
Procedure: After 18 hours of co-culture, bulk supernatants were evaluated for Interferon Gamma secretion (FIGS. 66A-B). Assays were performed using purified, tEGFR^+ (transduction marker), CER-expressing T cells 7 days after activation using CD3 & CD28 microbeads at effector: target ratios of (2:1 & 5:1). Control “Mock” T cells were transduced with vector alone.

[2] = tested on: H1975 lung adenocarcinoma cells; test: MTT viability of H1975 cells co-cultured with CER T cells and Osimeritinib; conditions: Osimeritinib 250, 500, 1000 nM; CD4+ T cells, E:T 1:1, 2:1, 5:1; 48 hours
Text: H1975 lung adenocarcinoma cells harboring an EGFR mutation were co-cultured with CER123- or CER126-modified or Mock-transduced (vector only) CD4+ T cells with increasing concentrations of Osimeritinib. CER123 has a polypeptide sequence as set forth in SEQ ID NO:150 and comprises a Tim4 binding domain, Tim4 transmembrane domain, and an engulfment signaling domain comprising a primary engulfment signaling domain comprising a TLR2 signaling domain and a secondary engulfment signaling domain comprising a TRAF6 signaling domain. CER126 has a polypeptide sequence as set forth in SEQ ID NO:174 and comprises a Tim4 binding domain, Tim4 transmembrane domain, and an engulfment signaling domain comprising a primary engulfment signaling domain comprising a TLR2 signaling domain and a secondary engulfment signaling domain comprising a TRAF2 signaling domain. CD4 T cells were transduced with a lentiviral vector comprising CER123 or CER126 nucleic acid and truncated EGFR (transduction marker) nucleic acid. Assays were performed using CER modified T cells purified by FACS using an EGFR specific antibody 7 days after activation using CD3 & CD28 microbeads. CER modified T cells and H1975 cells were co-cultured at effector:target cell ratio (E:T) of 1:1, 2:1, or 5:1. After 48 hours of co-culture in the presence of Osimeritinib (0, 250 nM, 500 nM, or 1000 nM), T cells were washed away, and the number of viable H1975 cells were quantified using a calorimetric MTT assay. Cell viability experiments were performed in triplicate and presented as % of control (FIG. 45A).

Row | Molecule | bright field microscopy of A549 ALK+ co-culture (A549 ALK+ cells; Alectinib 3.7 μM, 48 hours, vs mock-transduced T cells) | in vitro growth/viability of A549 ALK+ cells (MTT) (A549 ALK+ cells; 48 hours) | in vitro growth/viability of A549 ALK+ cells (MTT) (A549 ALK+ cells; 72 hours) | phagocytosis of A549 cells (ALK+A549 cells; 1 μM Alectinib, 12 hours) | phagocytosis of A549 cells (ALK+A549 cells; 1 μM Crizotinib, 12 hours) | Interferon Gamma secretion [1] | growth/viability of H1975 cells (MTT) [2] | phagocytic elimination of ALK+A549 cells (ALK+A549 cells; 2.5 μM Alectinib, 12 hours) | phagocytic uptake of A549 ALK+ cells, time course (ALK+A549 cells; CD4+ T cells, 4, 8, and 16 hours co-culture)
1 | B1 | cluster of dead A549 ALK+ cells surrounded by phagocytic CER104^+ T cells | synergistically suppress in vitro growth of NSCLC cells harboring ALK rearrangements | synergistically suppress in vitro growth of NSCLC cells harboring ALK rearrangements | phagocytosed A549 cells | phagocytosed A549 cells |  |  |  | 
2 | B2 |  |  |  |  |  | dose-dependent inducible cytokine secretion | synergistically suppressed | phagocytic elimination of ALK+A549 cells | 
3 | B3 |  | synergistically suppress in vitro growth of NSCLC cells harboring ALK rearrangements | synergistically suppress in vitro growth of NSCLC cells harboring ALK rearrangements |  |  |  |  |  | phagocytic events by CER122-transduced T cells

Source: patent publication US11708423B2, “Chimeric engulfment receptor molecules and methods of use” (CERO THERAPEUTICS, INC., priority 2017, dated 2023)
